The labels stand for the following.
B1: Serine/threonine-protein kinase OXI1 (Arabidopsis thaliana (Mouse-ear cress)), Q9LSF1 (parent)
chain: MLEGDEKQSRALDFNRLEVLSLLGRGAKGVVFLVRDDDAKLLALKVILKEAIEKKKKGRESEDDEYKRVSFEQGVLSRFDHPLFPSLHGVLATDKVIGYAIDYCPGQNLNSLRKMQSESMFSDEIIRFYAAELVLALDYLHNQGIVYRDLKPDNVMIQENGHLMLIDFDLSTNLAPRTPQPSPSLSKPSPTMKRKKRLFRFTSFCNSGISPQESISVHSSSTLAVSDSSGEKSNSFVGTEEYVAPEVISGDGHDFAVDWWSLGVVLYEMLYGATPFRGSNRKETFYRILSKPPNLTGETTSLRDLIRRLLEKDPSRRINVEEIKGHDFFRGVDWEKVILVSRPPYIPAPDDGGDKGTDVNTKMDVENIVQEIFAARQEREKQSGDNNKNANMKIKDNTSGEWVKGLNNNHDLESDNNFLVF
partner: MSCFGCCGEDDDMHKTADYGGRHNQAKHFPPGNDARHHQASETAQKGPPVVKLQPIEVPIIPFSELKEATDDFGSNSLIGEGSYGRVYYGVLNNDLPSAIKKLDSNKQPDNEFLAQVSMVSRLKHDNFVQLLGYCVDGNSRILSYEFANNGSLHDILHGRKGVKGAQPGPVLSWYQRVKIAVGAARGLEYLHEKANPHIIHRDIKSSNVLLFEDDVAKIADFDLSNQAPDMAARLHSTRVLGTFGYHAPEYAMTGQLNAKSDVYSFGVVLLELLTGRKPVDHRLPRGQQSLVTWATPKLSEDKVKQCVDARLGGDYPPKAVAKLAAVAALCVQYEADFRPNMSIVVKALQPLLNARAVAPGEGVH

Consider one variant from IntAct's records for PubMed 21276203.

Variants of B1 are the subject of the assay. Conditions: with y2706, O80719.
On to MLEGDEKQSRALDFNRLEVLSLLGRGAKGVVFLVRDDDAKLLALRVILKEAIEKKKKGRESEDDEYKRVSFEQGVLSRFDHPLFPSLHGVLATDKVIGYAIDYCPGQNLNSLRKMQSESMFSDEIIRFYAAELVLALDYLHNQGIVYRDLKPDNVMIQENGHLMLIDFDLSTNLAPRTPQPSPSLSKPSPTMKRKKRLFRFTSFCNSGISPQESISVHSSSTLAVSDSSGEKSNSFVGTEEYVAPEVISGDGHDFAVDWWSLGVVLYEMLYGATPFRGSNRKETFYRILSKPPNLTGETTSLRDLIRRLLEKDPSRRINVEEIKGHDFFRGVDWEKVILVSRPPYIPAPDDGGDKGTDVNTKMDVENIVQEIFAARQEREKQSGDNNKNANMKIKDNTSGEWVKGLNNNHDLESDNNFLVF [K45R], for which the “effect of a mutation on the interaction” value is “disrupting interaction”.
